From patent US20180230214A1 (Memorial Sloan Kettering, published 2018)

B1: m906 anti-CD56 Fab (Fab, V domains shown)
VH: EVQLVQSGAEVKKPGSSVKVSCKASGGTFTGYYMHWVRQAPGQGLEWMGWINPNSGGTNYAQKFQGRVTMTRDTSISTAYMELSRLRSDDTAVYYCARDLSSGYSGYFDYWGQGTLVTVSS
VL: DVVMTQSPLSLPVTPGEPASISCRSSQSLLHSNGYNFLDWYLQKPGQSPQLLIYLGSNRASGVPDRFSGSGSGTDFTLKISRVEADDVGVYYCMQSLQTPWTFGHGTKVEIKR
notes: Human Fab from light chain shuffling of a phage display clone; also called Fab46-19
B2: m903 anti-CD56 Fab (Fab, V domains shown)
VH: EVQLVQSGAEVKKPGSSVKVSCKASGGTFTGYYMHWVRQAPGQGLEWMGWINPNSGGTNYAQKFQGRVTMTRDTSISTAYMELSRLRSDDTAVYYCARDLSSGYSGYFDYWGQGTLVTVSS
VL: not shown
notes: Human Fab from light chain shuffling of a phage display clone; also called Fab46-E5
B3: m904 anti-CD56 Fab (Fab, V domains shown)
VH: EVQLVQSGAEVKKPGSSVKVSCKASGGTFTGYYMHWVRQAPGQGLEWMGWINPNSGGTNYAQKFQGRVTMTRDTSISTAYMELSRLRSDDTAVYYCARDLSSGYSGYFDYWGQGTLVTVSS
VL: not shown
notes: Human Fab from light chain shuffling of a phage display clone; also called Fab46-H3
B4: m905 anti-CD56 Fab (Fab, V domains shown)
VH: EVQLVQSGAEVKKPGSSVKVSCKASGGTFTGYYMHWVRQAPGQGLEWMGWINPNSGGTNYAQKFQGRVTMTRDTSISTAYMELSRLRSDDTAVYYCARDLSSGYSGYFDYWGQGTLVTVSS
VL: DVVMTQSPLSLPVTPGEPASISCRSSQSLLHSNGYNYLNWYLQKPGQSPQLLIYLGSNRASGVPDRFSGSGSGTDFTLKISRVEGEDVGDYYCMQALQSPFTFGQGTKLEIKR
notes: Human Fab from light chain shuffling of a phage display clone; also called Fab46-8

Biological target: T1, human CD56 (human, UniProt P13591 20-718, limits assumed)
T1 construct: also called neural cell adhesion molecule
Test: Biacore (surface plasmon resonance), Fab
From the text: CD56 Fab selection: CD56-binding Fabs were selected with phage display technology in two steps, as previously described (Feng, et al. A novel human monoclonal antibody that binds with high affinity to mesothelin-expressing cells and kills them by antibody-dependent cell-mediated cytotoxicity. Mol Cancer Ther. 8(5):1113-1118 (2009)). Firstly, CD56 Fabs were identified by panning and screening of a large naïve human antibody library through multiple rounds of binding and amplification. In the second step, the selected clone with the best in vitro and in vivo binding property was affinity matured through a light chain shuffling process, where the VH of the clone was combined with the VL repertoire from the original library. The sub-library was further panned and screened with CD56 to obtain Fab clones with the same epitope but different affinities. Binding of the Fabs was confirmed with ELISA and affinities estimated with Surface Plasmon Resonance method on a Biacore Processing unit X100.

Binder | Kd
B1 | 4.49 nM
B2 | 236 nM
B3 | 90.9 nM
B4 | 9.17 nM
